Patent publication US20230028476A1 (EVOTEC INTERNATIONAL, published 2023)
Where two headings read alike, the source gives them in different places. Each block holds one binder with its values, some of them ahead of it.

What was measured:
Experiment in all cases: cell-based or functional assay
[1] = molecular target: human IFN receptor on HEK-Blue IFN-γ cells (human)
[2] = molecular target: T1, human CD40 (human, UniProt P25942 21-277)
[3] = molecular target: human IFN receptor on HEK-Blue IFN-γ cells (human); remark: listed apart in the source
[4] = molecular target: T1, human CD40; remark: listed apart in the source
[5] = molecular target: human IFN receptor on HEK-Blue IFN-λ cells (human)
[6] = molecular target: human IFN receptor on HEK-Blue IFN-α/β cells (human)
[7] = molecular target: T1, human CD40; remark: listed apart in the source

T1 sequence (P25942 21-277): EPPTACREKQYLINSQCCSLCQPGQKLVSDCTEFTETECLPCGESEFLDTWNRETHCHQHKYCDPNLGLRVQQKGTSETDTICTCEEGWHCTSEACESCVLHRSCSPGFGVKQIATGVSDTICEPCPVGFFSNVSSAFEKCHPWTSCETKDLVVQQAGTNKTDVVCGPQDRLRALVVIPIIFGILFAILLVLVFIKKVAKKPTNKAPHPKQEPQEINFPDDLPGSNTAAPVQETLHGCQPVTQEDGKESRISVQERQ

B2: IFA43 (antibody, human IgG2, kappa)
heavy: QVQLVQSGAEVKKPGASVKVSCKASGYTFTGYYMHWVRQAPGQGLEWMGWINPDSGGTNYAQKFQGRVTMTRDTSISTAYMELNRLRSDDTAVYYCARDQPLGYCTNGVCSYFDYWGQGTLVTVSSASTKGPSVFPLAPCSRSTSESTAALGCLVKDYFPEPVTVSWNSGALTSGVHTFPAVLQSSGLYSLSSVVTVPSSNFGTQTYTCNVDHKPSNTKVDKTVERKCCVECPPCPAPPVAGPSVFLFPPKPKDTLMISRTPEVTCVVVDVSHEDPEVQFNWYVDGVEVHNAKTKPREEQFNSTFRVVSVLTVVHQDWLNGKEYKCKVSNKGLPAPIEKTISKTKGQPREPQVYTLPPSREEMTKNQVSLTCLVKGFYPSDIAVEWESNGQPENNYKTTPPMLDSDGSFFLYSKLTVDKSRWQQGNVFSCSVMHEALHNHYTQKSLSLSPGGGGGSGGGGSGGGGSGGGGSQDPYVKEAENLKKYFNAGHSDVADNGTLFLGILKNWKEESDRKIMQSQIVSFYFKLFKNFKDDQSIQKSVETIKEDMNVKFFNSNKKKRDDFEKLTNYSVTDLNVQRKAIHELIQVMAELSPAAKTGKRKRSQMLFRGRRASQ
light: DIQMTQSPSSVSASVGDRVTITCRASQGIYSWLAWYQQKPGKAPNLLIYTASTLQSGVPSRFSGSGSGTDFTLTISSLQPEDFATYYCQQANIFPLTFGGGTKVEIKRTVAAPSVFIFPPSDEQLKSGTASVVCLLNNFYPREAKVQWKVDNALQSGNSQESVTEQDSKDSTYSLSSTLTLSKADYEKHKVYACEVTHQGLSSPVTKSFNRGEC
- IFNγ EC50 (HEK-Blue IFNγ reporter cells) [1]: < 0.001 ng/mL
- CD40 EC50 (HEK-Blue CD40L reporter cells) [2]: 50.8 ng/mL
- IFNγ activity EC50 (HEK-Blue IFNγ reporter cells) [3]: < 0.01 ng/mL

B4: IFA45 (antibody, human IgG2, kappa)
heavy: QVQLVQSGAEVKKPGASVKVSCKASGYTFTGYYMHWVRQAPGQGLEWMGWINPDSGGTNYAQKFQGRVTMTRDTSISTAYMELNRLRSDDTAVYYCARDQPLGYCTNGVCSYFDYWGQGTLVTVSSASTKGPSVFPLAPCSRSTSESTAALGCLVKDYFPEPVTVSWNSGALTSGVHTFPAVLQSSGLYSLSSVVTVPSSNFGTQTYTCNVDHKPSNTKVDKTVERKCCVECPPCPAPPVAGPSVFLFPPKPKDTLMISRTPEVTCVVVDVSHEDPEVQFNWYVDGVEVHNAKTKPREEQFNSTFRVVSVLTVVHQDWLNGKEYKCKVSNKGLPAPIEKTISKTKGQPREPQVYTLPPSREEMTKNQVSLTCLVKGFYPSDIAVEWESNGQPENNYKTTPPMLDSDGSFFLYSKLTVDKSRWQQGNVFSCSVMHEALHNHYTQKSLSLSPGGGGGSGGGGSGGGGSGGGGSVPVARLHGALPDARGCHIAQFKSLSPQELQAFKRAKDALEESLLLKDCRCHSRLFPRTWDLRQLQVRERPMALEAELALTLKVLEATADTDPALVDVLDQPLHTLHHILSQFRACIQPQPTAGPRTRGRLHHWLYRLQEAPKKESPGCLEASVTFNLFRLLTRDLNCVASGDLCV
light: DIQMTQSPSSVSASVGDRVTITCRASQGIYSWLAWYQQKPGKAPNLLIYTASTLQSGVPSRFSGSGSGTDFTLTISSLQPEDFATYYCQQANIFPLTFGGGTKVEIKRTVAAPSVFIFPPSDEQLKSGTASVVCLLNNFYPREAKVQWKVDNALQSGNSQESVTEQDSKDSTYSLSSTLTLSKADYEKHKVYACEVTHQGLSSPVTKSFNRGEC
- CD40 EC50 (HEK-Blue CD40L reporter cells) [2]: 25.8 ng/mL
- IFNλ EC50 (HEK-Blue IFNλ reporter cells) [5]: < 0.001 ng/mL

B5: IFA44 (antibody, human IgG2, kappa)
light: DIQMTQSPSSVSASVGDRVTITCRASQGIYSWLAWYQQKPGKAPNLLIYTASTLQSGVPSRFSGSGSGTDFTLTISSLQPEDFATYYCQQANIFPLTFGGGTKVEIKRTVAAPSVFIFPPSDEQLKSGTASVVCLLNNFYPREAKVQWKVDNALQSGNSQESVTEQDSKDSTYSLSSTLTLSKADYEKHKVYACEVTHQGLSSPVTKSFNRGECGGGGSGGGGSGGGGSGGGGSVPVARLHGALPDARGCHIAQFKSLSPQELQAFKRAKDALEESLLLKDCRCHSRLFPRTWDLRQLQVRERPMALEAELALTLKVLEATADTDPALVDVLDQPLHTLHHILSQFRACIQPQPTAGPRTRGRLHHWLYRLQEAPKKESPGCLEASVTFNLFRLLTRDLNCVASGDLCV
heavy: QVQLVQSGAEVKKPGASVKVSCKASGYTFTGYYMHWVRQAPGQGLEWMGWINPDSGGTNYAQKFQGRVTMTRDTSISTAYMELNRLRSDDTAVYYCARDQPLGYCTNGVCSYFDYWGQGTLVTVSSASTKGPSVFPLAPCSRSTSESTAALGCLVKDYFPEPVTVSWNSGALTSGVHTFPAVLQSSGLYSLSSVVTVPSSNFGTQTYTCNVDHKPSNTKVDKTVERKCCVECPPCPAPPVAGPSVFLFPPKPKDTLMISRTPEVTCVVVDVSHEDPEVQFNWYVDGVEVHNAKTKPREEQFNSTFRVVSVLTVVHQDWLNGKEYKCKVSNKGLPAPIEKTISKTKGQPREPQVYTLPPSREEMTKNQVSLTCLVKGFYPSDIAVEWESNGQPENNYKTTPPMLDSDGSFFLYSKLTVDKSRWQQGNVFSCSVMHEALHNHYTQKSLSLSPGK
- CD40 EC50 (HEK-Blue CD40L reporter cells) [2]: 41.4 ng/mL
- IFNλ EC50 (HEK-Blue IFNλ reporter cells) [5]: 0.153 ng/mL

B7: IFA108 (antibody, human IgG2, kappa)
heavy: QVQLVESGGGVVQPGKSLRLSCAASGFTFSSNGIHWVRQAPGKGLEWVAVIWSDGSNKFYADSVKGRFTISRDNSKNTLYLQMNSLRAEDTAVYYCARASGSGSYYNFFDYWGQGTLVTVSSASTKGPSVFPLAPCSRSTSESTAALGCLVKDYFPEPVTVSWNSGALTSGVHTFPAVLQSSGLYSLSSVVTVPSSNFGTQTYTCNVDHKPSNTKVDKTVERKCCVECPPCPAPPVAGPSVFLFPPKPKDTLMISRTPEVTCVVVDVSHEDPEVQFNWYVDGVEVHNAKTKPREEQFNSTFRVVSVLTVVHQDWLNGKEYKCKVSNKGLPAPIEKTISKTKGQPREPQVYTLPPSREEMTKNQVSLTCLVKGFYPSDIAVEWESNGQPENNYKTTPPMLDSDGSFFLYSKLTVDKSRWQQGNVFSCSVMHEALHNHYTQKSLSLSPGAEAAAKEAAAKASYNLLGFLQRSSNFQCQKLLWQLNGRLEYCLKDRMNFDIPEEIKQLQQFQKEDAALTIYEMLQNIFAIFRQDSSSTGWNETIVENLLANVYHQINHLKTVLEEKLEKEDFTRGKLMSSLHLKRYYGRILHYLKAKEYSHCAWTIVRVEILRNFYFINRLTGYLRN
light: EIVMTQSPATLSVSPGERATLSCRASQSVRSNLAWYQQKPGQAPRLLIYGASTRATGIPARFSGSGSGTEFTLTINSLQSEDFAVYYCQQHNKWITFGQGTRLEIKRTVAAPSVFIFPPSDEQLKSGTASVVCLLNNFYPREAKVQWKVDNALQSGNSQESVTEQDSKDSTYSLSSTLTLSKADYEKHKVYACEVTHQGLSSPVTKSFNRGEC
- IFNβ EC50 (HEK-Blue IFN-α/β reporter cells) [6]: 1.27 ng/mL
- CD40 EC50 (HEK-Blue CD40L reporter cells) [7]: 37.3 ng/mL

Further lines, results first:

- IFNγ EC50 (HEK-Blue IFNγ reporter cells) [1]: 15.4 ng/mL
- CD40 EC50 (HEK-Blue CD40L reporter cells) [2]: 65.6 ng/mL
B1: IFA42 (antibody, human IgG2, kappa)
light: DIQMTQSPSSVSASVGDRVTITCRASQGIYSWLAWYQQKPGKAPNLLIYTASTLQSGVPSRFSGSGSGTDFTLTISSLQPEDFATYYCQQANIFPLTFGGGTKVEIKRTVAAPSVFIFPPSDEQLKSGTASVVCLLNNFYPREAKVQWKVDNALQSGNSQESVTEQDSKDSTYSLSSTLTLSKADYEKHKVYACEVTHQGLSSPVTKSFNRGECGGGGSGGGGSGGGGSGGGGSQDPYVKEAENLKKYFNAGHSDVADNGTLFLGILKNWKEESDRKIMQSQIVSFYFKLFKNFKDDQSIQKSVETIKEDMNVKFFNSNKKKRDDFEKLTNYSVTDLNVQRKAIHELIQVMAELSPAAKTGKRKRSQMLFRGRRASQ
heavy: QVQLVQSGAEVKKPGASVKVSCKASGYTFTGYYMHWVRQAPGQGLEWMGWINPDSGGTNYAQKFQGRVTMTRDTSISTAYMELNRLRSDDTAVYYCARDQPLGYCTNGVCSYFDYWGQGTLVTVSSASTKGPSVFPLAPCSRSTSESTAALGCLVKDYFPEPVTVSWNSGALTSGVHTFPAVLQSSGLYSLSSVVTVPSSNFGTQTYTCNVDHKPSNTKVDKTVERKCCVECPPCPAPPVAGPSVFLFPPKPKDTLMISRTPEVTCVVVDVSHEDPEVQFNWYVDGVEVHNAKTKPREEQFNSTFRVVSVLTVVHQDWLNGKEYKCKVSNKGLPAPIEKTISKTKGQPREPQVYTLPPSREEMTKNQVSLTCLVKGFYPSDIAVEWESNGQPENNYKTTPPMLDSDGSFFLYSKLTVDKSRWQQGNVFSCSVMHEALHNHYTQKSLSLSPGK

- EC50, agonistic CD40 activity in the experiment of FIG. 3 (HEK-Blue CD40L reporter cells) [4]: 57 ng/mL
- EC50, potency on CD40 pathway (HEK-Blue CD40L reporter cells) [4]: 30 to 80 ng/mL
- mean EC50, agonistic CD40 activity (HEK-Blue CD40L reporter cells) [4]: 48 ng/mL
B3: agonistic anti-CD40 antibody CP870,893 (antibody, human IgG2, kappa)
heavy: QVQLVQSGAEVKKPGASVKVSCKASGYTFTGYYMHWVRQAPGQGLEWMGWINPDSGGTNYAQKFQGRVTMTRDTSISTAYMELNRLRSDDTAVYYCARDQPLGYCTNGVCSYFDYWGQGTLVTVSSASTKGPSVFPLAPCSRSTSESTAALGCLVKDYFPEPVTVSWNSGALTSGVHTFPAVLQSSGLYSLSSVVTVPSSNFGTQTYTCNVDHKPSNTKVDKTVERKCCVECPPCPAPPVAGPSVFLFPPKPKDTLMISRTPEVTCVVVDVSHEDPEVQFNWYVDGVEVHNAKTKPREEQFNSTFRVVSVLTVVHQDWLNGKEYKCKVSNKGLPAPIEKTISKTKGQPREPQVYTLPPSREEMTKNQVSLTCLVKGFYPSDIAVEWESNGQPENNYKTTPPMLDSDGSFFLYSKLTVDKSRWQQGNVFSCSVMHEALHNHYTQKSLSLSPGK
light: DIQMTQSPSSVSASVGDRVTITCRASQGIYSWLAWYQQKPGKAPNLLIYTASTLQSGVPSRFSGSGSGTDFTLTISSLQPEDFATYYCQQANIFPLTFGGGTKVEIKRTVAAPSVFIFPPSDEQLKSGTASVVCLLNNFYPREAKVQWKVDNALQSGNSQESVTEQDSKDSTYSLSSTLTLSKADYEKHKVYACEVTHQGLSSPVTKSFNRGEC

- mean EC50, CD40 activity (HEK-Blue CD40L reporter cells) [4]: 9.3 ng/mL
B6: anti-CD40 antibody 3G5 (Celldex) (antibody, human IgG2, kappa)
heavy: QVQLVESGGGVVQPGKSLRLSCAASGFTFSSNGIHWVRQAPGKGLEWVAVIWSDGSNKFYADSVKGRFTISRDNSKNTLYLQMNSLRAEDTAVYYCARASGSGSYYNFFDYWGQGTLVTVSSASTKGPSVFPLAPCSRSTSESTAALGCLVKDYFPEPVTVSWNSGALTSGVHTFPAVLQSSGLYSLSSVVTVPSSNFGTQTYTCNVDHKPSNTKVDKTVERKCCVECPPCPAPPVAGPSVFLFPPKPKDTLMISRTPEVTCVVVDVSHEDPEVQFNWYVDGVEVHNAKTKPREEQFNSTFRVVSVLTVVHQDWLNGKEYKCKVSNKGLPAPIEKTISKTKGQPREPQVYTLPPSREEMTKNQVSLTCLVKGFYPSDIAVEWESNGQPENNYKTTPPMLDSDGSFFLYSKLTVDKSRWQQGNVFSCSVMHEALHNHYTQKSLSLSPG
light: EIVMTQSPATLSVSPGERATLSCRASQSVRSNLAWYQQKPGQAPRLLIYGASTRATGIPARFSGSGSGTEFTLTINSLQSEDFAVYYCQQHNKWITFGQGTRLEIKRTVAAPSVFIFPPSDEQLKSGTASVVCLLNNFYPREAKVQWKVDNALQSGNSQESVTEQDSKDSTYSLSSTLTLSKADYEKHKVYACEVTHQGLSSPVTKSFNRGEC

- IFNβ EC50 (HEK-Blue IFN-α/β reporter cells) [6]: 0.45 ng/mL
- CD40 EC50 (HEK-Blue CD40L reporter cells) [7]: 30 ng/mL
B8: IFA109 (antibody, human IgG2, kappa)
heavy: QVQLVESGGGVVQPGKSLRLSCAASGFTFSSNGIHWVRQAPGKGLEWVAVIWSDGSNKFYADSVKGRFTISRDNSKNTLYLQMNSLRAEDTAVYYCARASGSGSYYNFFDYWGQGTLVTVSSASTKGPSVFPLAPCSRSTSESTAALGCLVKDYFPEPVTVSWNSGALTSGVHTFPAVLQSSGLYSLSSVVTVPSSNFGTQTYTCNVDHKPSNTKVDKTVERKCCVECPPCPAPPVAGPSVFLFPPKPKDTLMISRTPEVTCVVVDVSHEDPEVQFNWYVDGVEVHNAKTKPREEQFNSTFRVVSVLTVVHQDWLNGKEYKCKVSNKGLPAPIEKTISKTKGQPREPQVYTLPPSREEMTKNQVSLTCLVKGFYPSDIAVEWESNGQPENNYKTTPPMLDSDGSFFLYSKLTVDKSRWQQGNVFSCSVMHEALHNHYTQKSLSLSPGAEAAAKEAAAKASYNLLGFLQRSSNFQSQKLLWQLNGRLEYCLKDRMNFDIPEEIKQLQQFQKEDAALTIYEMLQNIFAIFRQDSSSTGWNETIVENLLANVYHQINHLKTVLEEKLEKEDFTRGKLMSSLHLKRYYGRILHYLKAKEYSHCAWTIVRVEILRNFYFINRLTGYLRN
light: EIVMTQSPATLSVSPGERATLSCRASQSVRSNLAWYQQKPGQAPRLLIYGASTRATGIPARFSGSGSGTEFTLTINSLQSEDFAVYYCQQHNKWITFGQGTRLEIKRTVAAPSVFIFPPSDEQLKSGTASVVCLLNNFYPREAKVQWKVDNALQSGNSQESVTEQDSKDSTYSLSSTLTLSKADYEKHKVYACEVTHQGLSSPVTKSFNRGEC
